Patent US20080050387A1, “Non-Androgen Dependent Roles for Androgen Receptor and Non-Androgen Related Inhibitors of Androgen Receptor” (priority 2003, published 2008)

Biological target: T1, VP16-AR containing the residues 37 to 919 (human), P10275
T1 chain: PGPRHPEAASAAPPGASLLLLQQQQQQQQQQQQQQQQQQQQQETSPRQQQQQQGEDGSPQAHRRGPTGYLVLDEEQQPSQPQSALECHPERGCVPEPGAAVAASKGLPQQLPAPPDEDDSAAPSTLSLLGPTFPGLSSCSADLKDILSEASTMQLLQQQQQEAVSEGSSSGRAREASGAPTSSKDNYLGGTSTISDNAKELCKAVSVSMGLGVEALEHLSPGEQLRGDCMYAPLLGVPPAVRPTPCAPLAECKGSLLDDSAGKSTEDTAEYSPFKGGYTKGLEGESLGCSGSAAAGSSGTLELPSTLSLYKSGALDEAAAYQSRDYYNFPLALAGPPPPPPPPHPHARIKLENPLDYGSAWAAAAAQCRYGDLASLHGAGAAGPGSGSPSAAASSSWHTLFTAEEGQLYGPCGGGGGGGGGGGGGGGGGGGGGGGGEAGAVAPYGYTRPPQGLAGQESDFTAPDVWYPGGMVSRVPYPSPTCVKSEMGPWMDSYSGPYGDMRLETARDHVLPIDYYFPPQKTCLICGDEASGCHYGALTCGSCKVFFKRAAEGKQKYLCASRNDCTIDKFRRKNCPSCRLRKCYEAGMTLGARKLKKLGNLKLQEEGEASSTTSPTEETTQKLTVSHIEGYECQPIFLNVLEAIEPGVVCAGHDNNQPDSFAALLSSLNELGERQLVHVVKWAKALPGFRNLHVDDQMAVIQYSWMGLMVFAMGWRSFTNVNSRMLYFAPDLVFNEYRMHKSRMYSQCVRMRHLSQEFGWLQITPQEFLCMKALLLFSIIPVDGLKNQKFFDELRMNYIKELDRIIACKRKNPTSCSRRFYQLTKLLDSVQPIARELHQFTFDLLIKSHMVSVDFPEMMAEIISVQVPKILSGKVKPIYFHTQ
Test: cell-based or functional assay

B1: D30 peptide (…), LXXLL motif peptide (peptide)
peptide: HPTHSSRLWELLMEATPTM
modifications: not checked
two-hybrid peptide assay (pG4-LUC reporter, PC-3 cells, with against without 10 nM DHT): 350 fold
